Variants at the floor of the assay were thinned out.

B1: TPR 5TU (parent)
chain: GGAUCUUCUCGAUCUAACAAAAAAGACAAAUCUGCCACAAAGCUUGAGAGCAUCUUCGGAUGCAGAGGCGGCAGCCUUCGGUGGCGCGAUAGCGCCAACGUUCUCAACUAUGACACGCAAAACGCGUGCUCCGUUGAAUGGAGUUUAUCAUG

In this data set the parent is B1. Description: polymerase ribozyme fitness, log enrichment relative to wild type (log ratio); higher = more active; in vitro selection for triplet polymerase activity. In short, it runs like this:
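Only genotypes with ≥10 input reads and ≥1 read per output were kept after Illumina sequencing of input and output libraries. These libraries were PCR-built, transcribed mutants of each subunit of a heterodimeric triplet polymerase ribozyme, each put through one triplicate in vitro selection round with frozen incubation at −7 °C, gel excision of extended constructs, streptavidin-bead capture and RT-PCR. Fitness is a logarithmic ratio of genotype enrichment to wild-type enrichment, from inverse-variance-weighted replicate averages, with the logarithm in base 2.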
With GGAUCUUCUCGCUCUAACAAAAAAGACAAAACUGCCACAAAGCUUGGGAGCAUCUUCGGAUGCAGAGGCGGCAGCCUUAGGUGGCGCGAUAGCGCCAACGUUCUCAACUAUGACACGCAAAACGCGUGCUCCGUUGAAUGGAGUUUAUCAUG, the “polymerase ribozyme fitness (log ratio)” value is at most -4.2. Consider GGAUCUUCUCGCUCUAACAAAAAAGACAAAUCAGCCACAAAUCUUGAGAGCAUCUUCGGGUGCAGAGGCGGCAGCCUUCGGUGGCGCGAUAGGGCCAACGUUCUCAACUAUGACACGCAAAACGCGUGCUCCGUUGAAUGGAGUUUAUCAUG, for which the “polymerase ribozyme fitness (log ratio)” value is at most -4.2. With GGAUCUUCUCGCUCUAACAAAAAAGACAAAUCUGCCACAAAGCUUGAGAGCAUCUUUGGAUGCAGAGGCGGCAGCGUUCGGUGGCGCGAUAGCGCUAACGUUCUCAACUAUGACACGCAAAACGCGUGCUCCGUUGAAUGGAGUUUAUCAUG the figure was at most -4.2; with GGAUCUUCUCGCUCUAACAAAAAAGACAAAUCUGCCACAAAGCUUGAGAGCCUCUUCGGAUGCAGAGGCGGCAGCCUUCGGUGGCGUGCUAGCGCCAACGUUCUCAACUAUGACACGCAAAACGCGUGCUCCGUUGAAUGGAGUUUAUCAUG, -3.43.

With GGAUCUUCUCGCUCUAACAAAAAAGACAAAUCUGCCACAAAGCUUGAGAGCAUCUUCGGAUGCAGAGGCGGCAGCCUUCGGUGGCGCGAUAGCGCCAACGUUCUCAACUAUGGCACGCAAAACGCGUGCUCCGUUGAAUGGAGUUUAUCAUG, the “polymerase ribozyme fitness (log ratio)” value was -2.73. As to GGAUCUUCUCGCUCUAACAAAAAAGACAAAUCUGCCACAAAGCUUGAGAGCAUCUUCGGAUGCUGAGCCGGCAGCCUUCGGUGUCGCGAUAGCGCCAACGUUCUCCACUAUGACACGCAAAACGCGUGCUCCGUUGAAUGGAGUGUAUCAUG, the “polymerase ribozyme fitness (log ratio)” value was at most -4.2. For GGAUCUUCUCGCUCUAACAAAAAAUACAAAUCUGCCACAAAGCUUGAGAGGAUCUUCGGAUGCAGAGGCGGGAGCCUUCGGUGGCGCGAUAGCGCCAACGUUCUCAACUAUGACACGGAAAACGCGUGCUCCGUUGAAUGGAGUUUAUCAUG, the “polymerase ribozyme fitness (log ratio)” value is at most -4.2.

Consider GGAUCUUCUCGCCCUAACAAAAAAGCGAAAUCUGCCACAAAGCUUGAGAGCAUCUUCGGAUGCAGAGGCAGCAGCCUUCGGUGGCGCGAUAGCGCGAACGUUCUCAACUAUGACACGCAAAACGCGUGCUCCGUUGAAUGGAGUUUAUCAUG, for which the “polymerase ribozyme fitness (log ratio)” value was at most -4.2. Turning to GGAUCUUCUCGCUCUAACAAAAAAGACAAAUCUGCCACAAAGUUUGAGAGCCUCUUCGGAUGCAGAGGCGGCAGCCUUCGGUGUCGCGAUAGGGCCAACGUUCUCAACUAUGACACGCAAAACGCGUGCUCGGUUGAAUGGAGUUUAUCAUG, the “polymerase ribozyme fitness (log ratio)” value was at most -4.2. Next, GGAUCUUCUCGGUCUUACAAAAAAGACAAAUCUGCCACAAAGCUUGAGAGCAUUUUCGGAUGCAGAGGCGGCGGCCUUCGGUUCCGCGAUAGCGGCAACGUUCUCAACUAUGACACGCAAAACGCGUGCUCCGUUGAAUCGAGUUUAUCAUG: at most -4.2; GGAUCUUCUCGCUCUAACAAAAAAGACAAAUCUGCCACAAAGCUUGAGAGCAUCUUCGGAUGCAGAGGCGGCAGCCUUCGGUGGCGCGAGAGCGCCAACGUUCUCAGCUAUGACACGCAAAACGCGUGCUCCGUUGAGUGGAGUUUAUCAUG: at most -4.2. For the variant GGAUCUUCUCGCUCUAACAAAAAAGACAAAUCUGCCACAAAGCUUGAGAGCAUCUUCGGAUGCAGAGGCGGCAGCCUUCGGUGGCGCGAGAGCGCCAACGUUCUCAACUAUGACACGCAAAACGCGUGCUCCGUUGAAUGGAGUUUAUCAUG, the “polymerase ribozyme fitness (log ratio)” value is at most -4.2. As to GGAUCUUCUCGGUCUCACAAAAAAGACAAAUCUGCCACAAAGCUUGAGAGCAUCUUCGGAUGCAGAGGCGGCAGCCUUCGGUGGCGCGAUAGCGCCAACGUUCUCAACUAUGACACGCUAGACGCGUGCUCCGUCGAAUGGAGUUAAUCGUG, the “polymerase ribozyme fitness (log ratio)” value was -4.12. Take GGAUCUUCUCGCUCUAACAAAAAAGACAAAUCUGCCACAAAGCUUGAGAGCAUCUUCGGAUGCAGAGGCGGCAGCCUUCGGUGGCGCGAUAGCGCCAACGUUCUCAACUAUGGCACGCUAAACGCGUGCUCCGUUGAAUGGAGUAUAUCAUG: the “polymerase ribozyme fitness (log ratio)” value was -3.25.

GGAUCUUCUCGCUCUAACAAAAAAGACAAAUCUGCCACAAAGCUUGAGAGCAUCUUCGGAUGCAGAGGCGGCAGCCUUCGGUGGCGAGAUAGCGCCAACGUUCUCAACUAUGACACGCAAAACGCGUGCCCCGUUGAAUGGAGUUUAUCAUG: the “polymerase ribozyme fitness (log ratio)” value was at most -4.2. GGAUCUUCUCGCUCUAACAAAAAAGACAAAUCUGCCACAAAGCUUGAGAGCAACUUCGGAUGCAGAGGCGGCAGCCUUCGGUGGCGCGAUAGCGCCAACGUUCUCAACUAUGACACGCAAAACGGGUGCUCCGUUGAAUGGAGUUUAUCUGG: the “polymerase ribozyme fitness (log ratio)” value is at most -4.2. On to GGAUCUUCUCGCUCUAACAAAAAAGACAAAUCUGUCACAAAGCUUGAGCGCAUCUUCGGAUGCUGAGGCGGCAGCCUUCGGUGGCGCGAUAGCGUCAACGUUCUCAACUAUGACACGCAAAAUGCGUGCUCCGUUGAAUGGAGUUUAUCAUG, for which the “polymerase ribozyme fitness (log ratio)” value is at most -4.2.

Consider GGAUCUUCUCGCUCUAACAAAAAAGAUAAAUCUGUCACAAAGCUUGAGAGCCUCUUCGGAUGCAGAGGCGGCAGACUUCGGUGGCGCGAUAGCGCCAACGUUCUCAACUAUGACCCGCAAAACGCGUGCUCCGUUGAAUGGAGUUUAUCAUG, for which the “polymerase ribozyme fitness (log ratio)” value is at most -4.2.

Turning to GGAUCUUCUCGCUCUAACAAAAAAGACAAAUCUGCCACAAAGCUUGAGAGCAUCUUCAGAUGCAGAGGCGGCAGCCUUCGGUGUCGCGAUAGCGCCAACGUUCUCAACUAUGACUCGCAAAACGCGUGCUCCGUUGAAUGGAGUUUAUCAUG, the “polymerase ribozyme fitness (log ratio)” value is -3.83.

These data come from the RNAGym collection of RNA variant scans (doi:10.1073/pnas.2313332121).
